Assay results published in IntAct's records for PubMed 23468526.

B1: Moesin/ezrin/radixin homolog 1 (Drosophila melanogaster (Fruit fly)), P46150 (parent)
chain: MSPKALNVRVTTMDAELEFAIQSTTTGKQLFDQVVKTIGLREVWFFGLQYTDSKGDSTWIKLYKKVMNQDVKKENPLQFRFRAKFYPEDVAEELIQDITLRLFYLQVKNAILTDEIYCPPETSVLLASYAVQARHGDHNKTTHTAGFLANDRLLPQRVIDQHKMSKDEWEQSIMTWWQEHRSMLREDAMMEYLKIAQDLEMYGVNYFEIRNKKGTDLWLGVDALGLNIYEQDDRLTPKIGFPWSEIRNISFSEKKFIIKPIDKKAPDFMFFAPRVRINKRILALCMGNHELYMRRRKPDTIDVQQMKAQAREEKNAKQQEREKLQLALAARERAEKKQQEYEDRLKQMQEDMERSQRDLLEAQDMIRRLEEQLKQLQAAKDELELRQKELQAMLQRLEEAKNMEAVEKLKLEEEIMAKQMEVQRIQDEVNAKDEETKRLQDEVEDARRKQVIAAEAAAALLAASTTPQHHHVAEDENENEEELTNGDAGGDVSRDLDTDEHIKDPIEDRRTLAERNERLHDQLKALKQDLAQSRDETKETANDKIHRENVRQGRDKYKTLREIRKGNTKRRVDQFENM
partner: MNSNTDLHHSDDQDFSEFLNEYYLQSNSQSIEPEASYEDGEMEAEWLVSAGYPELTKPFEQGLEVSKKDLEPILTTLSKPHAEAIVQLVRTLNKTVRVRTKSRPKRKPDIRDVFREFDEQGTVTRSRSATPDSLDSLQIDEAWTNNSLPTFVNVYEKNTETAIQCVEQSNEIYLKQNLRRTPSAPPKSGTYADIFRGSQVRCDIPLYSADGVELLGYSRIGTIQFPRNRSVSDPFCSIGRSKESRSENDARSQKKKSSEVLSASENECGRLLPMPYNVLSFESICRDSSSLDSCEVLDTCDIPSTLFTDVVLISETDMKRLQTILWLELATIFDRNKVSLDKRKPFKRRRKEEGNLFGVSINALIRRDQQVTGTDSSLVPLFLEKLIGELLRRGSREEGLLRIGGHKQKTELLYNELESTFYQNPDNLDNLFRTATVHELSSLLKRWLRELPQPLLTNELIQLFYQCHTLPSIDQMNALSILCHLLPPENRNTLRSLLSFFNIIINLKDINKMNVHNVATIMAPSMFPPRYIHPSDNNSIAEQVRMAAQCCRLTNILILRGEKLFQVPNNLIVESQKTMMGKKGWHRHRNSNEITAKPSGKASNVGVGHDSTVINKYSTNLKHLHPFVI

Variants of: B1
Settings: with conu_drome conu

effect of a mutation on the interaction	Variant
increasing interaction strength	MSPKALNVRVTTMDAELEFAIQSTTTGKQLFDQVVKTIGLREVWFFGLQYTDSKGDSTWIKLYKKVMNQDVKKENPLQFRFRAKFYPEDVAEELIQDITLRLFYLQVKNAILTDEIYCPPETSVLLASYAVQARHGDHNKTTHTAGFLANDRLLPQRVIDQHKMSKDEWEQSIMTWWQEHRSMLREDAMMEYLKIAQDLEMYGVNYFEIRNKKGTDLWLGVDALGLNIYEQDDRLTPKIGFPWSEIRNISFSEKKFIIKPIDKKAPDFMFFAPRVRINKRILALCMGNHELYMRRRKPDTIDVQQMKAQAREEKNAKQQEREKLQLALAARERAEKKQQEYEDRLKQMQEDMERSQRDLLEAQDMIRRLEEQLKQLQAAKDELELRQKELQAMLQRLEEAKNMEAVEKLKLEEEIMAKQMEVQRIQDEVNAKDEETKRLQDEVEDARRKQVIAAEAAAALLAASTTPQHHHVAEDENENEEELTNGDAGGDVSRDLDTDEHIKDPIEDRRTLAERNERLHDQLKALKQDLAQSRDETKETANDKIHRENVRQGRDKYKDLREIRKGNTKRRVDQFENM [T559D]
